Measured values reported in patent US20250313644A1 (FUTUREGEN BIOPHARMACEUTICAL BEIJING, published 2025).
Residue numbers refer to the chain shown, from its start.

How the values were obtained:
[1] = biological target: T1, human TL1A (HuTL1A) (human, UniProt O95150 57-251, limits assumed, biotin-labelled in some assays (site not stated)); assay: cell-based or functional assay
T1 sequence: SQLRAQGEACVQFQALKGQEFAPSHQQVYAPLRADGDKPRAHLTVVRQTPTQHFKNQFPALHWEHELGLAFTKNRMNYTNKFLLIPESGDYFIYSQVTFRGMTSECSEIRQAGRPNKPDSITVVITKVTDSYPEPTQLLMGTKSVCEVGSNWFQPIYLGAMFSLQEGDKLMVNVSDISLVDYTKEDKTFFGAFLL

[2] = biological target: T1, human TL1A (HuTL1A); assay: DLS, antigen and antibody mixed in equal moles
Procedure: 60 μM antigen and antibody was mixed in equal moles, incubated at room temperature for 30 minutes, and then the molecular size was detected using UNCLE or SEC.

[3] = biological target: T1, human TL1A (HuTL1A); assay: ELISA: biotin-HuTL1A on streptavidin plate, antibody diluted at pH 7.4, HRP-anti-human Fc, OD450
Procedure: (§1) Corresponding antibodies were added to specific wells, and the antibodies were diluted with sodium dihydrogen phosphate-citrate buffer at pH 7.4, pH 6.0, pH 5.8, or pH 5.6. Binding assay was carried out at room temperature for 30 minutes. After the incubation, the excess antibodies were removed and the wells were washed by PBST. HRP-anti-Human Fc (Sino Biological) was then added into each well and incubated for 30 minutes to detect the bound antibody. The substrate TMB was finally added to develop color for 5-10 minutes. The color development reaction was terminated with 1M sulfuric acid. OD450 nm was recorded on a microplate reader, and the data were processed and fitted by 4 parameter logistic regression.

[4] = biological target: T1, human TL1A (HuTL1A); assay: as above; remark: listed apart in the source
Procedure: as §1

[5] = biological target: T1, human TL1A (HuTL1A); assay: ELISA: biotin-HuTL1A on streptavidin plate, antibody diluted at pH 6.0, HRP-anti-human Fc, OD450
Procedure: as §1

[6] = biological target: T1, human TL1A (HuTL1A); assay: BLI (Gator), biotin-HuTL1A on SA probe, pH 7.4; BLI (Gator), pH 7.4
Procedure: The binding kinetics between monoclonal antibodies and antigens was measured using Gator, a label-free biomolecule interaction analyzer based on the principle of biolayer interference (BLI). […] Then a serial dilutions of single-arm M701 antibodies and control antibodies were added. The antibodies interacted with the antigen captured by the SA probe, and the interaction was analyzed by detecting the signal change of the reflection interference spectrum of the probe surface, and finally the binding kinetics constants of the antibodies were calculated. The kinetic constants of antigen and antibodies were measured at pH 7.4 and 5.6 in sodium dihydrogen phosphate-citrate buffer.

[7] = biological target: T1, human TL1A (HuTL1A); assay: BLI (Gator), His-tagged TL1A on anti-His probe, pH 7.4
Procedure: (§2) Then a serial dilutions of single-arm M701 antibodies and control antibodies were added.

[8] = biological target: T2, cynomolgus monkey/rhesus monkey TL1A (cynomolgus monkey/rhesus monkey); assay: as above
T2 construct: also called Cynomolgus/rhesus monkey TL1A
Procedure: as §2

B1: M701-3756 (antibody, human IgG1, kappa, L234A L235A, V domains shown)
VH: ELQLQESGPGLVKPSETLSLTCAVSGLSFTDFYWAWIRQPPGKGLEWIGEINHKGNTSYNPSLKSRVTVSIDTSKNQFSLKLSSVTAADTAVYFCARDFPNYTFDFWGQGTLVTVSS
VL: DIQLTQSPGTLSLSPGERATLSCRASQSVSNHLAWYQQKPGQAPRLLIYGASKRATGIPDRFSGSGSGTDFTLTISRLEPEDFAVYYCQQYADAPLTFGQGTKVEIKR
notes: Fc-engineered IgG1; from the original phage library
IC50 (read off the curve); SEAP reporter in HEK293T/DR3-NFκB cells with soluble TL1A, OD655 [1]: ~1 nM | Ave Z-dia (nm) of the antigen-antibody complex [2]: 19.1 nm

B2: M701-3876 (antibody, human IgG1, kappa, L234A L235A, V domains shown)
VH: EVQLQESGPGLVKPSETLSLTCAVSGVSYSDYHWAWIRQPPGKGLEWIGDINHKGKTNYNPSLKSRVTISVDTSKNQFSLKLSSVTAADTAVYYCARDYPNFLFDYWGQGTLVTVSS
VL: B1 VL with D1A, L4M, N31S, K53R, D60A, A94S
notes: Fc-engineered IgG1
IC50 (read off the curve); SEAP reporter in HEK293T/DR3-NFκB cells with soluble TL1A, OD655 [1]: ~1 nM | Ave Z-dia (nm) of the antigen-antibody complex [2]: 18.7 nm

B3: single-arm antibody 4035 (antibody, human IgG1, kappa, L234A L235A)
heavy: ELQLQESGPGLVKPSETLSLTCAVSGISFNDFHWAWIRQPPGKGLEWIGDINHRGHTSYNPSLKSRVTVSVDTSKNQFSLKLSSVTAADTAVYYCARDYPNFTFDLWGQGTLVTVSSASTKGPSVFPLAPSSKSTSGGTAALGCLVKDYFPEPVTVSWNSGALTSGVHTFPAVLQSSGLYSLSSVVTVPSSSLGTQTYICNVNHKPSNTKVDKKVEPKSCDKTHTCPPCPAPEAAGGPSVFLFPPKPKDTLMISRTPEVTCVVVDVSHEDPEVKFNWYVDGVEVHNAKTKPREEQYNSTYRVVSVLTVLHQDWLNGKEYKCKVSNKALGAPIEKTISKAKGQPREPQVYTLPPCREEMTKNQVSLWCLVKGFYPSDIAVEWESNGQPENNYKTTPPVLDSDGSFFLYSKLTVDKSRWQQGNVFSCSVMHEALHNHYTQKSLSLSPG
light: not shown
chain: DKTHTCPPCPAPEAAGGPSVFLFPPKPKDTLMISRTPEVTCVVVDVSHEDPEVKFNWYVDGVEVHNAKTKPREEQYNSTYRVVSVLTVLHQDWLNGKEYKCKVSNKALGAPIEKTISKAKGQPREPQVCTLPPSREEMTKNQVSLSCAVKGFYPSDIAVEWESNGQPENNYKTTPPVLDSDGSFFLVSKLTVDKSRWQQGNVFSCSVMHEALHNHYTQKSLSLSPG
notes: Single-arm form of 3912; also called M701-4035
EC50 (read off the curve) [3]: ~0.3 nM | EC50 (read off the curve) [4]: ~0.3 nM | EC50 (read off the curve) [5]: ~1 nM

B4: single-arm antibody M701-3952 (antibody, human IgG1, kappa, L234A L235A)
heavy: B3 heavy with I27V, N30S, F32Y, S58N, V71I, Y94F, Y99F, T103I, L106Y
light: not shown
chain: B3 chain
EC50 (read off the curve) [3]: ~0.5 nM | Kd [6]: 5.25 nM | koff [6]: 0.00306 s⁻¹ | kon [6]: 582000 M⁻¹ s⁻¹ | Kd [7]: 5.68 nM | koff [7]: 0.00346 s⁻¹ | kon [7]: 610000 M⁻¹ s⁻¹ | Kd [8]: 5.75 nM | koff [8]: 0.0036 s⁻¹ | kon [8]: 626000 M⁻¹ s⁻¹ | EC50 (read off the curve) [4]: ~0.5 nM

B5: single-arm antibody 3672 (antibody, human IgG1, kappa, L234A L235A)
heavy: ELQLQESGPGLVKPSETLSLTCAVSGLSFTDFYWAWIRQPPGKGLEWIGEINHKGNTSYNPSLKSRVTVSIDTSKNQFSLKLSSVTAADTAVYFCARDFPNYTFDFWGQGTLVTVSSASTKGPSVFPLAPSSKSTSGGTAALGCLVKDYFPEPVTVSWNSGALTSGVHTFPAVLQSSGLYSLSSVVTVPSSSLGTQTYICNVNHKPSNTKVDKKVEPKSCDKTHTCPPCPAPEAAGGPSVFLFPPKPKDTLMISRTPEVTCVVVDVSHEDPEVKFNWYVDGVEVHNAKTKPREEQYNSTYRVVSVLTVLHQDWLNGKEYKCKVSNKALGAPIEKTISKAKGQPREPQVYTLPPCREEMTKNQVSLWCLVKGFYPSDIAVEWESNGQPENNYKTTPPVLDSDGSFFLYSKLTVDKSRWQQGNVFSCSVMHEALHNHYTQKSLSLSPG
light: not shown
chain: B3 chain
notes: also called M701-3672
EC50 (read off the curve) [3]: ~3 nM | EC50 (read off the curve) [4]: ~3 nM

B6: single-arm antibody 3900 (antibody, human IgG1, kappa, L234A L235A)
heavy: EVQLQESGPGLVKPSETLSLTCAVSGVSYSDYHWAWIRQPPGKGLEWIGDINHKGKTNYNPSLKSRVTISVDTSKNQFSLKLSSVTAADTAVYYCARDYPNFLFDYWGQGTLVTVSSASTKGPSVFPLAPSSKSTSGGTAALGCLVKDYFPEPVTVSWNSGALTSGVHTFPAVLQSSGLYSLSSVVTVPSSSLGTQTYICNVNHKPSNTKVDKKVEPKSCDKTHTCPPCPAPEAAGGPSVFLFPPKPKDTLMISRTPEVTCVVVDVSHEDPEVKFNWYVDGVEVHNAKTKPREEQYNSTYRVVSVLTVLHQDWLNGKEYKCKVSNKALGAPIEKTISKAKGQPREPQVYTLPPCREEMTKNQVSLWCLVKGFYPSDIAVEWESNGQPENNYKTTPPVLDSDGSFFLYSKLTVDKSRWQQGNVFSCSVMHEALHNHYTQKSLSLSPG
light: not shown
chain: B3 chain
notes: also called M701-3900
EC50 (read off the curve) [3]: ~0.5 nM | EC50 (read off the curve) [4]: ~0.5 nM | EC50 (read off the curve) [5]: ~0.9 nM

B7: single-arm antibody M701-3990 (antibody, human IgG1, kappa, L234A L235A)
heavy: B3 heavy with I27V, N30T, F32Y, S58N, V71I, T103I, F104Y, L106Y
light: not shown
chain: B3 chain
notes: Single-arm form of 4019
EC50 (read off the curve) [3]: ~0.4 nM | Kd [6]: 4.26 nM | koff [6]: 0.00168 s⁻¹ | kon [6]: 394000 M⁻¹ s⁻¹ | Kd [7]: 4.89 nM | koff [7]: 0.00214 s⁻¹ | kon [7]: 438000 M⁻¹ s⁻¹ | Kd [8]: 4.51 nM | koff [8]: 0.00208 s⁻¹ | kon [8]: 462000 M⁻¹ s⁻¹ | EC50 (read off the curve) [4]: ~0.4 nM | EC50 (read off the curve) [5]: ~1 nM

B8: M701-3912 (antibody, human IgG1, kappa, L234A L235A, V domains shown)
VH: ELQLQESGPGLVKPSETLSLTCAVSGISFNDFHWAWIRQPPGKGLEWIGDINHRGHTSYNPSLKSRVTVSVDTSKNQFSLKLSSVTAADTAVYYCARDYPNFTFDLWGQGTLVTVSS
VL: DIQMTQSPATLSLSPGERATLSCRASQSVSTYLAWYQQKPGQAPRLLIYGASRRATGIPARFSGSGSGTDFTLTISSLQSEDFAVYYCQQYGDTPLTFGQGTKVEIKR
notes: Fc-engineered IgG1
Ave Z-dia (nm) of the antigen-antibody complex [2]: 18.5 nm
